Experimental data from the nanobody polyreactivity screen of Harvey et al. (2022).

assay: yeast display, Sf9 membrane polyspecificity reagent, FACS + sequencing; frameworks hold sequencing errors
How it was run: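 Sorting gates, low and high (top ~1%), were placed on anti-HA fluorescence to track expression and on streptavidin fluorescence to track reagent binding. A clone's polyreactivity label is taken from the gate it came out of. The reagent was 10% biotinylated, detergent-solubilized Sf9 membrane, applied for 1 hour at 4 °C to galactose-induced yeast display cells.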

Sequence	polyreactivity (PSR sort gate)
QVQLVESGGGLVQAGGSLRLSCAASGSIFHDYAMGWYRQAPGKEREMVAAIRWSGGSTYYADSVKGRFTISRDNAKNTVYLQMNSLKREETAVYYCNAVTFGRDNVQLVKFGYWGQGTQVTVSS	low polyreactivity
QVQLVESGGGLVQAGGSLRLSCAASGSIFHFYAMGWYRQAPGKERELVAAITSGTSTYYADSVKGRFTISRDNAKNTVFLQMNSLKPEDTAVYYCAAEASHYYYNAYPSYGGSDYWGQGTQVTVSS	low polyreactivity
QVQLVESGGGLVQAGGSLRLSCAASGSIFHGYAMGWYRQAPGKERELVAAISKSGGRTYYADSVKGRFTISRDNAKNTVYLQMNSLKPEDTAVYYCAAPATYKYDYWGQGTQVTVSS	high polyreactivity
QVQLVESGGGLVQAGGSLRLSCAASGSIFHGYAMGWYRTAPGKERELVAAISYTGGRTYYADSVKGRFTISRDNAMNTVYLQMNSLKPEDTAVYYCAAHDYWGQGTQVTVSS	high polyreactivity
QVQLVESGGGLVQAGGSLRLSCAASGSIFHKNAMGWYIQAPGKERELVARITSSSGSTYYADSVKGRFTISRDNAKNTVYLQMNSLKPEDTAVYYCNASPTTTPNFWRYDYWGQGTQVTVSS	high polyreactivity
QVQLVESGGGLVQAGGSLRLSCAASGSIFHLYAMGWYRQATGKERELVAAISWSGGSTYYADSVKGRFTISRDNAKNTVYLQMNSLKPEDTAVYYCAAEYYYQFYDYPYGYEYWGQGTQVTVSS	high polyreactivity
QVQLVESGGGLVQAGGSLRLSCAASGSIFHPNAMGWYRQAPGKERELVAAITQSGATTYYADSVKGRFTISRDNAKNTVYLQMNSLKPEDTAVYYCAAEFTYGHHDYWGQGTQVTVSS	low polyreactivity
QVQLVESGGGLVQAGGSLRLSCAASGSIFHPYAMGWSRQAPGKERELVASISKRGGSTYYADSVKGRFTISRDNAKNTVYLQMNSLKPEDTAVYYCAKLYTIGYDYWGQGTQVTVSS	low polyreactivity
QVQLVESGGGLVQAGGSLRLSCAASGSIFHTYAMGWYIQAPGKERELVAAITVSGGDTYYADSVKGRFTISRDNEKNNVYLQMNSLKPEDTAVYYCAVDTTTSYTVAYDYWGQGTQVSVSS	low polyreactivity
QVQLVESGGGLVQAGGSLRLSCAASGSIFHVNAMGWYRQAPGKERELVAGISDGGSTYYADSVKGRFTISRDNAKNTVYLQMNSLKPEDTAVYYCAAESEQWYSYVLSYDWEYDYWGQGTQVTVSS	low polyreactivity
QVQLVESGGGLVQAGGSLRLSCAASGSIFHVNARGRYRQAPGKERELVAGISDGGSTYYADSVKGRFTISRDNAKNTVYLQMNSLKPEDTGVYYCAAESEQWYSYVLSYDWEYDYWGQGTQVTVSS	low polyreactivity
QVQLVESGGGLVQAGGSLRLSCAASGSIFHYNAMGWYRQAPGKEREFVAVISKSSGSTFYADSVKGRLTISRDNAKNTVYLQMNSLKPEDTAVYYCNRVTKRYRKIGNYWGQGTQVTVSS	high polyreactivity
QVQLVESGGGLVQAGGSLRLSCAASGSIFHYNAMGWYRQAPGKERELVARISVNGGRTYYADSVKGRFTISRDNAKNTVYLQMNSLKPEDTAVYYCAVEGVWRSFFYGYDSWGQGTQVTVSS	low polyreactivity
QVQLVESGGGLVQAGGSLRLSCAASGSIFHYYGMGWYRQAPGKERELVAAISRGGSTNYADSVKGRFTISRDNAKNTVYLQMNSLKPEDTAVYYCNARTYRKAYSGYNYWGQGTQVTVSS	high polyreactivity
QVQLVESGGGLVQAGGSLRLSCAASGSIFIAYGMGWYRQEPGKERELVAAITVSGGNTYYADSVKGRFTISRDNAKNTVYLQMKSLKPEDTAVYYCAADYWYYYGKGLYDYWGQGTQVTVSS	low polyreactivity
QVQLVESGGGLVQAGGSLRLSCAASGSIFIAYGMGWYRQEPGKERELVAAITVSGGNTYYADSVKGRFTISRDNAKNTVYLQMNSLKPEDNAVYYCADVTYWQDGHRGNYWGQGTQVTVSS	low polyreactivity
QVQLVESGGGLVQAGGSLRLSCAASGSIFIFNAMGWYRQAPGKEREFVARIRRDSSTYYADSVKGRFTISRDNAKNTVYLLMNSLKPEDTAVYYCAAKRVYRRVELNSWGQGTQVTVSS	low polyreactivity
QVQLVESGGGLVQAGGSLRLSCAASGSIFIGYAMGWYRQAPGKERELVAAIDSNGDTTYYADSVKGRFTISRDNAKNTVYLQMNSLKPEDTAVYYCAVDPYHDQLVSDHYYWGQGTQVTVSS	low polyreactivity
QVQLVESGGGLVQAGGSLRLSCAASGSIFIGYAMGWYRQAPGKERELVAAISNSGGRTYYADSVKGRFTISRDNAKNTVYLQMNSLKPEDTAVYYCAAEERYAYRYDYSGQGTQVTVSS	high polyreactivity
QVQLVESGGGLVQAGGSLRLSCAASGSIFIINAMGWYRQAPGKERELVAAINNGVNTYYADSVKGRFTISRDNAKNTVYLQMNSLKPEDTAVYYCAADPYFYYYGYDYWGQGTQVTVSS	low polyreactivity
QVQLVESGGGLVQAGGSLRLSCAASGSIFIIYAMGWYRQAPGKERELVAAINTSGTSTYYADSVKGRFTISRDNAKNTVYLQMNSLKPEDTAVYYCAAAGRRSYKYYFWGQGTQVTVSS	high polyreactivity
QVQLVESGGGLVQAGGSLRLSCAASGSIFIIYAMGWYRQAPGKERELVASITGRGDSTYYADSVKGRFTISRDNAKNTVYLQMNSLKPEDTAVYYCNAGVYVYRVPGKGYYWGQGTQVTVSS	low polyreactivity

Sequence	polyreactivity (PSR sort gate)
QVQLVESGGGLVQAGGSLRLSCAASGSIFIQYAMGWYRQAPGKERELVAAINTSGGRTYYADSVKGRFTISRDNAKNTVYLLMNSLKPEDTAVYYCNADHFGWPWRVRILEDDYWGQGTQVTVSS	low polyreactivity
QVQLVESGGGLVQAGGSLRLSCAASGSIFIRYTLGWYRQAPGKERELVAVISRRGGSTYYADSVKGRFTISRDNAKNTVYLQMNSLNPEDTAVYYCNTTSSVRAPGSGVYYVPGFDYWGQGTQVTVSS	high polyreactivity
QVQLVESGGGLVQAGGSLRLSCAASGSIFISYAMGWYRQAPGTERELVAAITWSGDSTYYADSVKGRFTISRDNAKNTVYLQMNSLKPEDTAVYYCAADWYFRNQRGYYWGQGTQVTVSS	low polyreactivity
QVQLVESGGGLVQAGGSLRLSCAASGSIFITYAMGWYRQAPGKEMELVAAIRDSGDRTYYADSVKGRFTISRDNAKNTVYLQMNSLKPVDTAVYYCNARWEEPLKYDYWGQGTQVTVSS	low polyreactivity
QVQLVESGGGLVQAGGSLRLSCAASGSIFITYAMGWYRQAPGKERELVAAIRDSGDRTYYADSVKGRFTISRDNAQNTVYLQMNSLKPEDTAVYHCNARWQEPLKYDYWGQGTQVTVSS	low polyreactivity
QVQLVESGGGLVQAGGSLRLSCAASGSIFIVYARGWYRPAPGRERELVATITSGGSTNYADSVKGRFTISRDNAKKTVYLQMNSLKPEDTAVYYCAKDLYYGDYYYWGLGTQVTVSS	low polyreactivity
QVQLVESGGGLVQAGGSLRLSCAASGSIFIWYAMAWYRQAPWKERELVAAIRSGGSTYYADSVKGRFTISRDNAKNTVYLQMNSLKPEDTAVYYCAKVLTWRGYRYNYWGQGTQVTVSS	low polyreactivity
QVQLVESGGGLVQAGGSLRLSCAASGSIFIYAMGWYRQAPGKERELVATISWSGTSTYSDSVKGRFTISRDNAKNTVYLQMNSLKPEDTAVYYCNKLKRTYYSSGYPHDYWGQGTQVTVSS	low polyreactivity
QVQLVESGGGLVQAGGSLRLSCAASGSIFIYNAMGWYRQAPGKERELVAAINWTGGSTYYADSVKGRFTISRDNAKNTVYLQMNSLKPEDTAVYYCNALRYGSTRGYDYWGQGTQVTVSS	high polyreactivity
QVQLVESGGGLVQAGGSLRLSCAASGSIFIYNAMGWYRQAPGKERELVAAITWSGGRTYYADSVKGRFTISRDNAKNSVYLQMNSLKPEDTAVYYCNAVWTDAYYSYGYDYWGQGTQVTVSS	low polyreactivity
QVQLVESGGGLVQAGGSLRLSCAASGSIFIYYAMGGYRQEPGKERELVAAINTGGTTYYADSVKGRFTISRYNAKNTVYLQMNSLNPEDTAVYYCAKYIAYYGYVPSPWDHPGDDYWGQGTQVTVSS	low polyreactivity
QVQLVESGGGLVQAGGSLRLSCAASGSIFIYYAMGWYRQAPGKEREFVAAISTSTADTYYADSVKGRFTISRDNAKNTVYLQMNSLKPEDTAVYYCAAECRPKWYYWAEGYYWGQGTQVTVSS	high polyreactivity
QVQLVESGGGLVQAGGSLRLSCAASGSIFIYYAMGWYRQAPGKERELVADITFSAGSNTYYADSVKGRFTISRDNAKNTVYLQMNSLKPEDTAVYYCNADRGFIGSITEYDYWGQGTQVTVSS	low polyreactivity
QVQLVESGGGLVQAGGSLRLSCAASGSIFKAHTMGWYRQAPGKERELVAAISGSGGRTRYADSVKGRFTISRDNAKITVYLQMNSLKPDVTAVYYCAASDRGGYYYWGQGTQVTVSS	high polyreactivity
QVQLVESGGGLVQAGGSLRLSCAASGSIFKFNAMGWYRQAPGKERELDASITWTGTSTHYADSVKGRFTISRDNAKNTVFLQMNSLKPEDTAVYYCATYLYLWYEKGYTYDYWGQGTQVTVSS	high polyreactivity
QVQLVESGGGLVQAGGSLRLSCAASGSIFKFNTMGWYRQAPGNERELVAAITRVGSTYYADSVKGRFTISRDNAKNTVYLQMNSLKPEDTAVYYCAVRQRDKFAGGRNDYWGQGTQVTVSS	high polyreactivity
QVQLVESGGGLVQAGGSLRLSCAASGSIFKFYAMGWYRQAPGKERELVAAINYNDINTYYADSVKGRFTISRDNAKNTVYLQMNRLKPEDTAVYYCNAELNVQYLYGYTGEYDYWGQGTQVTVSS	low polyreactivity
QVQLVESGGGLVQAGGSLRLSCAASGSIFKGYSMGWYRQAPGKERELVAAITIDGSTYYADSVKGRFTISRDNAKNTVYLQMNSLKPEDTAVYYCAAVYLWYGSWPLHFAAYDYWGQGTQVTVSS	low polyreactivity
QVQLVESGGGLVQAGGSLRLSCAASGSIFKGYTMGWYRQAPGKEREFVASISRRGGSTYYADSVKGRFTISRDNAKNTVYLQMNSLKPDDTAVYYCAKDYGKAYDYWGQGTQVTVSS	high polyreactivity
QVQLVESGGGLVQAGGSLRLSCAASGSIFKINAMGWYRQAPGKERELVAAITRSGGSTYYADSVKGRFTISRDNAKNTVYLQMNSLKPEDTAVYYCNASTSRRTSLSSRFYYWGQGTQVTVSS	high polyreactivity
QVQLVESGGGLVQAGGSLRLSCAASGSIFKINAMGWYRQAPGKERELVATITWSTGTTYYADSVKGRFTISRDNAKNTVYLQMNSLKPEDTAVYYCATDGDSTKLDYWGQGTQVTVSS	low polyreactivity
